Target: T1, HR2P-FITC (HR2P peptide labeled with FITC) (MERS-CoV, UniProt K9N5Q8 1251-1286)
T1 peptide: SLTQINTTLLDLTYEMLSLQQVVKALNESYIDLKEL
Assay: native gel or EMSA

## ANKFNQALGAMQTGFTTTNEAFHKVQDAVNNNAQALSKLASE [HR1P peptide (residues 998-1039 of the MERS-CoV S protein, HR1 domain of the S2 subunit)]
  binding result: binds

From paper PMC7114414 (Virus Research, 2014)
